This note sets out measurements from publication PMC8692065 (Cell Reports, 2021).

In this assay the target is SARS-CoV-2 S1 (Avi-tag, biotinylated) (SARS-CoV-2, original strain, UniProt P0DTC2, biotinylated (Avi-tag)). The assay is described as follows: BLI. For orientation: In BLI a coated tip is dipped into the sample, and binding shifts an interference pattern.

As usually defined, the Kd is the concentration at which binding is half-saturated.

B1: mAb-64, purified antibody (antibody, V domains shown)
VH: EVQLVETGGGLIQPGGSLRLSCAASGFTVSSNYMSWVRQAPGKGLEWVSVIYSGGSTYYADSVKGRFTISRDNSKNTLYLQMNSLRAEDTAVYYCARDLHIYGMDVWGQGTTVTVSS
VL: DIQMTQSPSSVSASVGDRVTITCRASQGISSWLAWYQQKPGKAPKLLIYAASSLQSGVPSRFSGSGSGTDFTLTISSLQPEDFATYYCQQANSFPNFGGGTKVEIK
With B1, the Kd stood at 1.96 nM. This counts as single-digit nanomolar.

B2: mAb-50, purified antibody (antibody, V domains shown)
VH: QVQLQESGPGLVNPSETLSLTCGVSGYSISSGFYWGWIRQPPGKGLEWIGSIYHRGSTFYNPSLKSRVTISVDRSKNQFSLRLSSVTAADTAVYYCARGEVLTSGGYNARFDPWGQGTLVTVSS
VL: DIQMTQSPSTLSASVGDSVTITCRASQSISLWLAWYQQKPGKAPKVLIYETSSLESGVPSRFSGSGAGTEFTLTISSLQPDDFATYYCQQYISYPLTFGGGTKVEIK
B2 gave a dissociation constant (Kd) of 1.61 nM.
